This test addresses T1, Full length Top2 (HFP185), purified (budding yeast (S. cerevisiae), UniProt P06786 1-1428).
T1 construct: Topoisomerase II (Top2), yeast, full length; Called a homodimer in the methods; also called Topoisomerase II; yeast Top2
T1 sequence (looked up): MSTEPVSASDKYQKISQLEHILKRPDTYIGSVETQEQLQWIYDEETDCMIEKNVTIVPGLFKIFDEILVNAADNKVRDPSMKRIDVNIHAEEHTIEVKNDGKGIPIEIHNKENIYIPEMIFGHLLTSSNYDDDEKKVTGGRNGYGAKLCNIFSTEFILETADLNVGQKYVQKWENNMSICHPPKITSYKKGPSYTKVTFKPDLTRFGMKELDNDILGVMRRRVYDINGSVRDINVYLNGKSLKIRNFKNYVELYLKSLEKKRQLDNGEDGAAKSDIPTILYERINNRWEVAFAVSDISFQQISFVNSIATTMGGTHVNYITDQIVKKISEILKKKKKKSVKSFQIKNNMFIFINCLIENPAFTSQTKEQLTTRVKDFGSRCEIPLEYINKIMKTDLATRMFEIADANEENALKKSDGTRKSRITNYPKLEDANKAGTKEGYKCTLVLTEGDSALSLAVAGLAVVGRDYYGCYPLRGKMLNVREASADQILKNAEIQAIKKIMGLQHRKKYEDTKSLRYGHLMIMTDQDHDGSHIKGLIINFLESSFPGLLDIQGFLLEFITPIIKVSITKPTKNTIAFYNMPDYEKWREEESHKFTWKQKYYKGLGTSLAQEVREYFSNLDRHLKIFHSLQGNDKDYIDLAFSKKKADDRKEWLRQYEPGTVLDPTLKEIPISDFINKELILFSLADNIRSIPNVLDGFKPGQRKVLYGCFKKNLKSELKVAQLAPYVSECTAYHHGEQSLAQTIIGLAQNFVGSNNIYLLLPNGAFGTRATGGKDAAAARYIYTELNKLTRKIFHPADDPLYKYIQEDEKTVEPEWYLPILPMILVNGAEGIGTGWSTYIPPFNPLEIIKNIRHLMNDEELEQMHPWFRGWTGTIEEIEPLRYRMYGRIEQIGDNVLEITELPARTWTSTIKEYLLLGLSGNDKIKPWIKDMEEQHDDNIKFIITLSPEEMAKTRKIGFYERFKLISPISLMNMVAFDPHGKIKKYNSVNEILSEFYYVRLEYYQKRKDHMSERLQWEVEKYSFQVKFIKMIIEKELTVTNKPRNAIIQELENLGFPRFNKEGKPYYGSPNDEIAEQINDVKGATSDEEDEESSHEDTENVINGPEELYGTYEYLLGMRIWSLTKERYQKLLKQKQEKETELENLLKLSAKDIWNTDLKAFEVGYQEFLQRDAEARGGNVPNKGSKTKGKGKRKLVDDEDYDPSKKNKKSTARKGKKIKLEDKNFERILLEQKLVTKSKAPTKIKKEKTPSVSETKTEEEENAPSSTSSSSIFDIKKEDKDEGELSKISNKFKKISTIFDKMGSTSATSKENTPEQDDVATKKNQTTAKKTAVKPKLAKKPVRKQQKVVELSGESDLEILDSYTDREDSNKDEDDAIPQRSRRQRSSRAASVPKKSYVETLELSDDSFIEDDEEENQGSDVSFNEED
Briefly: pull-down; about 0.1 mg Uls1 fragment (bait) pre-bound to Strep-Tactin superflow beads; 200 ul Top2 (prey, 0.1 mg/ml) added, 1 h at 4 C; Pulldown buffer 25 mM HEPES pH 7.5, 150 mM KCl, 3 mM MgCl2, 5% glycerol, 1 mM DTT, 0.1% NP-40; three washes. To be noted: both partners purified.

B1: Uls1 fragment 350-655, purified bait (domain or fragment, budding yeast (S. cerevisiae), UniProt Q08562 350-655, looked up)
chain: PSKNMDHTTHNSHDSEQKNSSIIILSDEDESGAGINDIESPLKVSEPNTADALRSSVPEVISLLDLPNIDLNNSVIKEASGSNSIPTSETDAQSSSSSVLQGTIMTEQATQSSQHECNSSLDTLKKNHQKLLKDLNSRESELRNALSCCKTNSEILRRKLSRREKEVSDAEKHWQLLLTSMARGGRTISSTQQILVDEAENQLNKLKEKRQLTKSKLDSINLKMYNYNEQWKSFVHSKNINLQKSLAALERSARDSKASATVNKRNECLAEKEKLDQMLKEGTLSFSTYKQLTGEIQQKLNDLKLG
notes: Tags are inferred from the resins used; also called bait protein; source: E. coli BL21(DE3)RIL, purified (TALON resin)
Consider B1, for which the binding result is listed as “binds”.
